Assay [1] has as its target Fab/Mab (sample loaded in Example 3). Description: 10% breakthrough dynamic binding capacity, MabSelect Xtra column, after 24 h in 0.1 M peracetic acid.
Assay [2] shares this target. Description: difference of dynamic binding capacity, after SIP minus control without SIP, MabSelect.
The target is the same in assay [3]. Description: 10% breakthrough dynamic binding capacity, MabSelect column, after 24 h in 0.1 M peracetic acid.
Assay [4] shares this target. Description: 10% breakthrough dynamic binding capacity, MabSelect Xtra column, residence time 6 min, no SIP.
Assay [5] shares this target. As to the kind of experiment: difference of dynamic binding capacity, after SIP minus control without SIP, MabSelect Xtra.
Assay [6] has the same target. Description: 10% breakthrough dynamic binding capacity, MabSelect column, residence time 6 min, no SIP.
Assay [7] has the same target. Description: difference of dynamic binding capacity, after SIP minus control without SIP.
Assay [8] shares this target. Description: 10% breakthrough dynamic binding capacity, ligand on agarose column, after 24 h in 0.1 M peracetic acid (ligand degraded by the treatment).
The target is the same in assay [9]. As to the kind of experiment: 10% breakthrough dynamic binding capacity, ligand on agarose column, residence time 6 min, no SIP.
For assay [10], the target named is Fab (sample of Example 4). Description: static binding capacity in filter plate, after 24 h in 500 mM peracetic acid, 10 min incubation with Fab, relative to PBS control.
The target in assay [11] is Fab/Mab (sample loaded in Example 3). As to the kind of experiment: 10% breakthrough dynamic binding capacity, ligand on agarose column, after 24 h in 0.1 M peracetic acid.
Assay [12] concerns the target Fab (sample of Example 4). As to the kind of experiment: static binding capacity in filter plate, after 4 h in 100 mM peracetic acid, 90 min incubation with Fab, relative to PBS control.
The target of assay [13] is Fab (sample of Example 4). Description: static binding capacity in filter plate, after 4 h in 5% H2O2, 90 min incubation with Fab, relative to PBS control.
The target in assay [14] is Fab (sample of Example 4). As to the kind of experiment: static binding capacity in filter plate, after 24 h in 100 mM peracetic acid, 10 min incubation with Fab, relative to PBS control.
Assay [15] deals with Fab (sample of Example 4). Description: static binding capacity in filter plate, after 4 h in 500 mM peracetic acid, 90 min incubation with Fab, relative to PBS control.
Assay [16] concerns the target Fab (sample of Example 4). As to the kind of experiment: static binding capacity in filter plate, after 24 h in 5% H2O2, 10 min incubation with Fab, relative to PBS control.
Assay [17] addresses Fab (sample of Example 4). Description: static binding capacity in filter plate, after 24 h in 500 mM peracetic acid, 90 min incubation with Fab, relative to PBS control.
In assay [18] the target is Fab (sample of Example 4). As to the kind of experiment: static binding capacity in filter plate, after 4 h in 100 mM peracetic acid, 10 min incubation with Fab, relative to PBS control.

Chain of recombinant Protein L (rPrL) (chain): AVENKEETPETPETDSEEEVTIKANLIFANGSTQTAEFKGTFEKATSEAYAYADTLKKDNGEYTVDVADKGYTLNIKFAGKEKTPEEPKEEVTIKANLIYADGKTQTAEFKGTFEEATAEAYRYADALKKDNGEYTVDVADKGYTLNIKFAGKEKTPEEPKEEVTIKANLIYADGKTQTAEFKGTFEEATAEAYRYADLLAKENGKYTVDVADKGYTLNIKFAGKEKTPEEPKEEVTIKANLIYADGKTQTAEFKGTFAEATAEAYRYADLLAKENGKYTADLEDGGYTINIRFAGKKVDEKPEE

For the substance “recombinant Protein A (rPrA) (from UniProt P38507 42-327)”, the DBC after SIP in assay [1] is 60 g/L; in assay [3] it was 51 g/L. For the same substance, the ΔDBC in assay [2] was -1 g/L; in assay [5], 1 g/L. Moreover, the DBC control, no SIP in assay [4] was determined as 59 g/L; in [6], 52 g/L.
“single-chain camelid antibody against IgG kappa chains (KappaSelect ligand) (VHH)” came in with a ΔDBC in assay [7] of -20 g/L. In assay [8], this substance came in with a DBC after SIP of 0 g/L. Also, the DBC control, no SIP in [9] is 20 g/L.
Regarding recombinant Protein L (rPrL), the ΔDBC in assay [7] is -1 g/L. The DBC control, no SIP in assay [9] is 30 g/L. The Relative remaining SBC (%) in assay [10] turned out to be 97%; in assay [12] it was 101%; in [13] it was 102%; in assay [14], 107%; in assay [15], 103%; in assay [16], 102%. Besides, the Relative remaining SBC (%) in [17] turned out to be 102%; in assay [18], 109%. Further, in assay [11], the DBC after SIP worked out at 29 g/L.
In assay [7], “MabSelect SuRe ligand (multimer of Protein Z variant with substituted asparagines) (designed binder)” had a ΔDBC of 1 g/L. This substance also yielded a DBC control, no SIP in assay [9] of 50 g/L. Moreover, the DBC after SIP in assay [11] came to 51 g/L.
As for “MabSelect SuRe LX ligand (multimer of Protein Z variant with substituted asparagines) (designed binder)”, the ΔDBC in assay [7] is 0 g/L. The substance further showed a DBC control, no SIP in assay [9] of 63 g/L. In addition, the DBC after SIP in [11] was 63 g/L.

(Values after patent US20180036445A1.)
